Data from publication PMC8112169 (Molecules and Cells, 2021).

B1: full-length Mdm36 (residues 1-579) (natural protein, Saccharomyces cerevisiae, UniProt Q06820 1-579, looked up)
chain: MDENGTVKPGYELKGLNSGNSRSNMDKDPIVSKFHRAGLNDSADEEDTDINGNRNTSWITSMISEEKRKVEGKSMLNDEEDLHLSKATLNKCDALVKILADIIKLEFVIHQSWYIRSLHKSVLIQFEVETSGGNKNSAGDSGDDDDDNHNGNLDDSFYKDLSLKCIKKCEKSSLALESLSRDIDQIRDFIMSNTIEDNRVDRLLQNSMTLLLECWIYSMKRLRRLRMKIAGIFVRSKLLLIDHELVTIWHFLQEQNEHETVNNENELKLAETIKSYRAFIKIFIQQLEDSESGSPSSSLFEECLHVFLDIESMYNSLNLNWLLNENKALQERLLSPSSTSENDHTNNLPVIDETKEIEDISSFVNSIVDASMLTHDLTPINSSDSDNLSNGEIDRLDGRRLSSSTSDMSLMMQRTSLQKQLPSLLTAFNNARRLEQELQNACKVNDNKHSTKDTDSNIRRNEHAMSSSVSSIISQNSTLASPSPPMSSSFISTAPSQSSSRMSTLPLSPSSSLLESQSQTLKNNMSQWLNQSRSGLNGTKLIPTNHIGFHSNVLNTLYGIGGGPVSKSYKSNQPSSQNT
B2: coiled-coil domain of Num1 (residues 97-294) (domain or fragment, Saccharomyces cerevisiae, UniProt Q00402 97-294, looked up)
chain: MNFTLELSENLLVECRKLQSSNEAKNEQIKSLKQIKESLSDKIEELTNQKKSFMKELDSTKDLNWDLESKLTNLSMECRQLKELKKKTEKSWNDEKESLKLLKTDLEILTLTKNGMENDLSSQKLHYDKEISELKERILDLNNENDRLLISVSDLTSEINSLQSNRTERIKIQKQLDDAKASISSLKRKVQKKYYQKQ
B3: Num1 (97-175) (domain or fragment, Saccharomyces cerevisiae, UniProt Q00402 97-175, looked up)
chain: MNFTLELSENLLVECRKLQSSNEAKNEQIKSLKQIKESLSDKIEELTNQKKSFMKELDSTKDLNWDLESKLTNLSMECR
B4: Num1 (97-195), N-terminal half of Num1CC (domain or fragment, Saccharomyces cerevisiae, UniProt Q00402 97-195, looked up)
chain: MNFTLELSENLLVECRKLQSSNEAKNEQIKSLKQIKESLSDKIEELTNQKKSFMKELDSTKDLNWDLESKLTNLSMECRQLKELKKKTEKSWNDEKESL

Tests used:
SEC-MALS = target: the molecule itself; assay: SEC-MALS
[1] = target: B1; assay: ITC
[2] = target: B1; assay: SEC

Row | Kd [1] [nM] | stoichiometry N [1] | binding result [2] | Binder | stoichiometry N (SEC-MALS)
1 | – | – | – | B1 | 2
2 | 121 | 1 Num1CC per Mdm36 (1:1) | – | B2 | 2
3 | – | – | binds | B3 | –
4 | – | – | binds | B4 | –
